The chains are these.
B1: minF1; the commonest letter at each place (parent)
chain: GAGACCGCAACTGAAAAGTTGTTATCAGAAATGGATGGGTTGAATTTCTGCACGTAGAAGCAAAAGGC

The variants in this data set derive from B1. Kind of data set: fraction ligated after 30 min (ligated reads / total reads); higher = more ligase activity. The note with it: with F1*subA RNA substrate (template-directed ligation), 42 °C. The gist of the method:
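RNAs for minimized ligase ribozyme variants were transcribed with T7 from PCR-amplified oligo-pool templates and purified on gels. Ligated and unligated species were resolved on gels, converted to cDNA with barcoded primers, and read on a MiSeq with core bases filtered at quality ≥30. Fraction ligated per variant is the ratio of ligated reads to total reads.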
Regarding GAGACCGCAACTGAAAAGTTGTTATCAGAAATGCAGGGGTTGAATTTCTGCACGTAGAAGCAAAAGGC, the fraction ligated stood at 0.00561.

Regarding GAGACCGCAACTGAAAAGTTGTTATCAGAAATGCACGGGTTGAATTTCTGCACGTAGAAGCAAAAGGC, the fraction ligated came out at 0.00419.

On to GAGACCGCAACTGAAAAGTTGTTATCAGAAATGCAAGGGTTGAATTTCTGCACGTAGAAGCAAAAGGC, for which the fraction ligated is 0.00257.

As to GAGACCGCAACTGAAAAGTTGTTATCAGAAATGCCTGGGTTGAATTTCTGCACGTAGAAGCAAAAGGC, the fraction ligated was found to be 0.00352.

As to GAGACCGCAACTGAAAAGTTGTTATCAGAAATGCTTGGGTTGAATTTCTGCACGTAGAAGCAAAAGGC, the fraction ligated stood at 0.00667.

GAGACCGCAACTGAAAAGTTGTTATCAGAAATGCGTGGGTTGAATTTCTGCACGTAGAAGCAAAAGGC: the fraction ligated came out at 0.00539.

With GAGACCGCAACTGAAAAGTTGTTATCAGAAATGACTGGGTTGAATTTCTGCACGTAGAAGCAAAAGGC, the fraction ligated was determined as 0.00719.

Turning to GAGACCGCAACTGAAAAGTTGTTATCAGAAATGAGTGGGTTGAATTTCTGCACGTAGAAGCAAAAGGC, the fraction ligated was found to be 0.00813.

With GAGACCGCAACTGAAAAGTTGTTATCAGAAATGATTGGGTTGAATTTCTGCACGTAGAAGCAAAAGGC, the fraction ligated came to 0.0147.

As to GAGACCGCAACTGAAAAGTTGTTATCAGAAATGAATGGGTTGTATTTCTGCACGTAGAAGCAAAAGGC, the fraction ligated was 0.00502.

On to GAGACCGCAACTGAAAAGTTGTTATCAGAAATGAATGGGTTGGATTTCTGCACGTAGAAGCAAAAGGC, for which the fraction ligated is 0.00716.

As for GAGACCGCAACTGAAAAGTTGTTATCAGAAATGAATGGGTTGCATTTCTGCACGTAGAAGCAAAAGGC, the fraction ligated was determined as 0.00464.

As for GAGACCGCAACTGAAAAGTTGTTATCAGAAATGCATGGGTTGTATTTCTGCACGTAGAAGCAAAAGGC, the fraction ligated was 0.0056.

In the case of GAGACCGCAACTGAAAAGTTGTTATCAGAAATGCATGGGTTGCATTTCTGCACGTAGAAGCAAAAGGC, the fraction ligated amounted to 0.00266.

For the variant GAGACCGCAACTGAAAAGTTGTTATCAGAAATGCATGGGTTGGATTTCTGCACGTAGAAGCAAAAGGC, the fraction ligated was 0.00118.

As for GAGACCGCAACTGAAAAGTTGTTATCAGAAATGAATGGGTTGAATTTCTGCACGTAGAAGCAAAAGGC, the fraction ligated turned out to be 0.0464.

With GAGACCGCAACTGAAAAGTTGTTATCAGAAATGTATGGGTTGAATTTCTGCACGTAGAAGCAAAAGGC, the fraction ligated is 0.00484.

GAGACCGCAACTGAAAAGTTGTTATCAGAAATGCATGGGTTGAATTTCTGCACGTAGAAGCAAAAGGC: the fraction ligated was 0.00469.

In the case of GAGACCGCAACTGAAAAGTTGTTATCAGAAATGCATGGGTTTAATTTCTGCACGTAGAAGCAAAAGGC, the fraction ligated is 0.00284.

For GAGACCGCAACTGAAAAGTTGTTATCAGAAATGCATGGGTTAAATTTCTGCACGTAGAAGCAAAAGGC, the fraction ligated stood at 0.00229.

In the case of GAGACCGCAACTGAAAAGTTGTTATCAGAAATGCATGGGTTCAATTTCTGCACGTAGAAGCAAAAGGC, the fraction ligated is 0.00271.

On to GAGACCGCAACTGAAAAGTTGTTATCAGAAATGCATGGGTTGAGTTTCTGCACGTAGAAGCAAAAGGC, for which the fraction ligated is 0.00318.

Consider GAGACCGCAACTGAAAAGTTGTTATCAGAAATGCATGGGTTGATTTTCTGCACGTAGAAGCAAAAGGC, for which the fraction ligated is 0.00566.

For GAGACCGCAACTGAAAAGTTGTTATCAGAAATGCATGGGTTGACTTTCTGCACGTAGAAGCAAAAGGC, the fraction ligated is 0.00339.

As for GAGACCGCAACTGAAAAGTTGTTATCAGAAATGAATGGGTTGATTTTCTGCACGTAGAAGCAAAAGGC, the fraction ligated came to 0.0265.

On to GAGACCGCAACTGAAAAGTTGTTATCAGAAATGAATGGGTTGAGTTTCTGCACGTAGAAGCAAAAGGC, for which the fraction ligated was determined as 0.019.

For GAGACCGCAACTGAAAAGTTGTTATCAGAAATGAATGGGTTGACTTTCTGCACGTAGAAGCAAAAGGC, the fraction ligated turned out to be 0.008.

With GAGACCGCAACTGAAAAGTTGTTATCAGAAATGTCTGGGTTGAATTTCTGCACGTAGAAGCAAAAGGC, the fraction ligated was found to be 0.00324.

Take GAGACCGCAACTGAAAAGTTGTTATCAGAAATGAATGGGTTTAATTTCTGCACGTAGAAGCAAAAGGC: the fraction ligated was found to be 0.00582.

In the case of GAGACCGCAACTGAAAAGTTGTTATCAGAAATGAATGGGTTAAATTTCTGCACGTAGAAGCAAAAGGC, the fraction ligated is 0.0111.

Turning to GAGACCGCAACTGAAAAGTTGTTATCAGAAATGAATGGGTTCAATTTCTGCACGTAGAAGCAAAAGGC, the fraction ligated amounted to 0.00302.

On to GAGACCGCAACTGAAAAGTTGTTATCAGAAATGCATCGGTTGAATTTCTGCACGTAGAAGCAAAAGGC, for which the fraction ligated amounted to 0.00307.

GAGACCGCAACTGAAAAGTTGTTATCAGAAATGCATTGGTTGAATTTCTGCACGTAGAAGCAAAAGGC: the fraction ligated amounted to 0.00343.

Regarding GAGACCGCAACTGAAAAGTTGTTATCAGAAATGCATAGGTTGAATTTCTGCACGTAGAAGCAAAAGGC, the fraction ligated was 0.00257.

GAGACCGCAACTGAAAAGTTGTTATCAGAAATGAATAGGTTGAATTTCTGCACGTAGAAGCAAAAGGC: the fraction ligated is 0.00394.

GAGACCGCAACTGAAAAGTTGTTATCAGAAATGAATCGGTTGAATTTCTGCACGTAGAAGCAAAAGGC: the fraction ligated turned out to be 0.00312.

Consider GAGACCGCAACTGAAAAGTTGTTATCAGAAATGAATTGGTTGAATTTCTGCACGTAGAAGCAAAAGGC, for which the fraction ligated was 0.00793.

With GAGACCGCAACTGAAAAGTTGTTATCAGAAATGAAGGGGTTGAATTTCTGCACGTAGAAGCAAAAGGC, the fraction ligated was 0.0395.

In the case of GAGACCGCAACTGAAAAGTTGTTATCAGAAATGAAAGGGTTGAATTTCTGCACGTAGAAGCAAAAGGC, the fraction ligated is 0.0315.

Regarding GAGACCGCAACTGAAAAGTTGTTATCAGAAATGAACGGGTTGAATTTCTGCACGTAGAAGCAAAAGGC, the fraction ligated turned out to be 0.0256.

The record behind these values is the supplement of paper PMC6755084.
